# Experimental data from article PMC10726430 (Cell metabolism, 2023).
# Biological target: the molecule itself
# Experiment: native gel or EMSA
protein,measurement,value
"NSUN2-F1 (amino acid 1–767), recombinant NSUN2 protein (enzyme, human, UniProt Q08J23-1 1-767, looked up) MGRRSRGRRLQQQQRPEDAEDGAEGGGKRGEAGWEGGYPEIVKENKLFEHYYQELKIVPEGEWGQFMDALREPLPATLRITGYKSHAKEILHCLKNKYFKELEDLEVDGQKVEVPQPLSWYPEELAWHTNLSRKILRKSPHLEKFHQFLVSETESGNISRQEAVSMIPPLLLNVRPHHKILDMCAAPGSKTTQLIEMLHADMNVPFPEGFVIANDVDNKRCYLLVHQAKRLSSPCIMVVNHDASSIPRLQIDVDGRKEILFYDRILCDVPCSGDGTMRKNIDVWKKWTTLNSLQLHGLQLRIATRGAEQLAEGGRMVYSTCSLNPIEDEAVIASLLEKSEGALELADVSNELPGLKWMPGITQWKVMTKDGQWFTDWDAVPHSRHTQIRPTMFPPKDPEKLQAMHLERCLRILPHHQNTGGFFVAVLVKKSSMPWNKRQPKLQGKSAETRESTQLSPADLTEGKPTDPSKLESPSFTGTGDTEIAHATEDLENNGSKKDGVCGPPPSKKMKLFGFKEDPFVFIPEDDPLFPPIEKFYALDPSFPRMNLLTRTTEGKKRQLYMVSKELRNVLLNNSEKMKVINTGIKVWCRNNSGEEFDCAFRLAQEGIYTLYPFINSRIITVSMEDVKILLTQENPFFRKLSSETYSQAKDLAKGSIVLKYEPDSANPDALQCPIVLCGWRGKASIRTFVPKNERLHYLRMMGLEVLGEKKKEGVILTNESAASTGQPDNDVTEGQRAGEPNSPDAEEANSPDVTAGCDPAGVHPPR",binding result,binds
